# Measured values: the supplement of paper PMC11780869
# Test system: Bacillus subtilis
# Assay: cleaved RNA product abundance (RNA/gDNA barcode ratio) relative to median wild-type variant (ratio to wild type); higher = more accumulation of the downstream cleavage product
# Conditions: cleavage site: cggR-gapA (positions -7 to +36 mutated)
# How it was run: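 Sequencing of barcodes from gel-selected, reverse-transcribed cleaved RNA and from genomic DNA, with UMI collapsing, yielded a per-construct RNA:gDNA ratio. Scaled to the median construct with the unmutated site, this ratio is the cleaved product abundance. The barcoded reporters (truncated aprE or tetM mRNAs with mutagenized RNase Y cleavage-site windows) were integrated into the B. subtilis chromosome, and cultures grew in LB at 37°C from OD600 0.0003 to 0.3.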
# [1] = experiment (reporter, strain, medium): exp 2b: truncated aprE reporter, strain BJT200
# [2] = experiment (reporter, strain, medium): exp 4a: truncated aprE reporter, strain BJT201 with 2% xylose (RNase J1 expressed)
# [3] = experiment (reporter, strain, medium): exp 6: tetM reporter, strain 168
Sequence,cleaved RNA product abundance [1],cleaved RNA product abundance [2],cleaved RNA product abundance [3]
ACAGACGAAGGAGCCGCAAAGAAGTTATTAAGGGATGAATAATCCCTAAATATAAATATCTCTCACTTATTTAAA,0.622,0.72,0.772
ACAGACGAAGGAGCCGCAAAGAAGTTATTAAGGGATGAATAATCCCTAAATATAAATATTTCTCACTTATTTAAA,–,0.836,–
ACAGACGAAGGAGCCGCAAAGAAGTTATTAAGGGATGAATAATCCCTAAATATACATATCTCTCACTTATTTAAA,0.498,0.465,–
ACAGACGAAGGAGCCGCAAAGAAGTTATTAAGGGATGAATAATCCCTAAATATAGATATCTCTCACTTATTTAAA,0.495,0.551,–
ACAGACGAAGGAGCCGCAAAGAAGTTATTAAGGGATGAATAATCCCTAAATATTAATATCTCTCACTTATTTAAA,0.189,–,–
ACAGACGAAGGAGCCGCAAAGAAGTTATTAAGGGATGAATAATCCCTAAATTTAAATATCTCTCACTTATTTAAA,0.162,–,–
ACAGACGAAGGAGCCGCAAAGAAGTTATTAAGGGATGAATAATCCCTAAGTATAAATATCTCTCACTTATTTAAA,0.255,0.502,–
ACAGACGAAGGAGCCGCAAAGAAGTTATTAAGGGATGAATAATCCCTAATTATAAATATCTCTCACTTATTTAAA,0.365,0.447,–
ACAGACGAAGGAGCCGCAAAGAAGTTATTAAGGGATGAATAATCCCTACATATAAATATCTCTCACTTATTTAAA,–,0.203,–
ACAGACGAAGGAGCCGCAAAGAAGTTATTAAGGGATGAATAATCCCTATATATAAATATCTCTCACTTATTTAAA,–,0.37,–
ACAGACGAAGGAGCCGCAAAGAAGTTATTAAGGGATGAATAATCCCTCAAAAAAAATATCTCTCACTTATTTAAA,–,0.0713,–
ACAGACGAAGGAGCCGCAAAGAAGTTATTAAGGGATGAATAATCCCTCAAAAGAAATATCTCTCACTTATTTAAA,–,0.0815,–
ACAGACGAAGGAGCCGCAAAGAAGTTATTAAGGGATGAATAATCCCTCAAAATAAAAATCTCTCACTTATTTAAA,–,0.393,–
ACAGACGAAGGAGCCGCAAAGAAGTTATTAAGGGATGAATAATCCCTCAAAATAAACATCTCTCACTTATTTAAA,–,0.316,–
ACAGACGAAGGAGCCGCAAAGAAGTTATTAAGGGATGAATAATCCCTCAAAATAAATAACTCTCACTTATTTAAA,–,0.363,–
ACAGACGAAGGAGCCGCAAAGAAGTTATTAAGGGATGAATAATCCCTCAAAATAAATAGCTCTCACTTATTTAAA,0.26,–,–
ACAGACGAAGGAGCCGCAAAGAAGTTATTAAGGGATGAATAATCCCTCAAAATAAATATCTCTCACTTATTTAAA,0.302,0.393,0.369
ACAGACGAAGGAGCCGCAAAGAAGTTATTAAGGGATGAATAATCCCTCAAAATAAATATTTCTCACTTATTTAAA,–,0.319,–
ACAGACGAAGGAGCCGCAAAGAAGTTATTAAGGGATGAATAATCCCTCAAAATAAATTTCTCTCACTTATTTAAA,–,0.285,–
ACAGACGAAGGAGCCGCAAAGAAGTTATTAAGGGATGAATAATCCCTCAAAATACATATCTCTCACTTATTTAAA,0.202,0.3,–

Sequence,cleaved RNA product abundance [1],cleaved RNA product abundance [2],cleaved RNA product abundance [3]
ACAGACGAAGGAGCCGCAAAGAAGTTATTAAGGGATGAATAATCCCTCAAAATAGATATCTCTCACTTATTTAAA,–,0.322,–
ACAGACGAAGGAGCCGCAAAGAAGTTATTAAGGGATGAATAATCCCTCAAAATATATATCTCTCACTTATTTAAA,–,0.304,–
ACAGACGAAGGAGCCGCAAAGAAGTTATTAAGGGATGAATAATCCCTCAAATATAAATATCTCTCACTTATTTAA,0.38,0.539,–
ACAGACGAAGGAGCCGCAAAGAAGTTATTAAGGGATGAATAATCCCTCAACAAAAATATCTCTCACTTATTTAAA,0.105,–,–
ACAGACGAAGGAGCCGCAAAGAAGTTATTAAGGGATGAATAATCCCTCAACATAAAAATCTCTCACTTATTTAAA,0.242,0.234,–
ACAGACGAAGGAGCCGCAAAGAAGTTATTAAGGGATGAATAATCCCTCAACATAAACATCTCTCACTTATTTAAA,–,0.215,–
ACAGACGAAGGAGCCGCAAAGAAGTTATTAAGGGATGAATAATCCCTCAACATAAATATCTCTCACTTATTTAAA,0.22,0.345,0.137
ACAGACGAAGGAGCCGCAAAGAAGTTATTAAGGGATGAATAATCCCTCAACATACATATCTCTCACTTATTTAAA,–,0.273,–
ACAGACGAAGGAGCCGCAAAGAAGTTATTAAGGGATGAATAATCCCTCAAGATAAATATCTCTCACTTATTTAAA,0.217,0.256,0.289
ACAGACGAAGGAGCCGCAAAGAAGTTATTAAGGGATGAATAATCCCTCAAGATAAATATTTCTCACTTATTTAAA,–,0.27,–
ACAGACGAAGGAGCCGCAAAGAAGTTATTAAGGGATGAATAATCCCTCAATAAAAATATCTCTCACTTATTTAAA,0.172,0.147,0.28
ACAGACGAAGGAGCCGCAAAGAAGTTATTAAGGGATGAATAATCCCTCAATAAAAATGTCTCTCACTTATTTAAA,–,0.0307,–
ACAGACGAAGGAGCCGCAAAGAAGTTATTAAGGGATGAATAATCCCTCAATACAAATACCTCTCACTTATTTAAA,–,0.0316,–
ACAGACGAAGGAGCCGCAAAGAAGTTATTAAGGGATGAATAATCCCTCAATACAAATATCTCTCACTTATTTAAA,0.117,0.0683,0.23
ACAGACGAAGGAGCCGCAAAGAAGTTATTAAGGGATGAATAATCCCTCAATAGAAATACCTCTCACTTATTTAAA,–,0.0433,–
ACAGACGAAGGAGCCGCAAAGAAGTTATTAAGGGATGAATAATCCCTCAATAGAAATATCTCTCACTTATTTAAA,0.164,0.111,0.165
ACAGACGAAGGAGCCGCAAAGAAGTTATTAAGGGATGAATAATCCCTCAATATAAAAATCACTCACTTATTTAAA,–,1.16,–
ACAGACGAAGGAGCCGCAAAGAAGTTATTAAGGGATGAATAATCCCTCAATATAAAAATCTCTCACTTATTTAAA,0.906,0.794,0.602
ACAGACGAAGGAGCCGCAAAGAAGTTATTAAGGGATGAATAATCCCTCAATATAAAAATGTCTCACTTATTTAAA,–,1.17,–
